Reference: the supplement of paper PMC10065799, “High-throughput profiling of sequence recognition by tyrosine kinases and SH2 domains using bacterial peptide display” (eLife, 2023)

Target: FGFR3 (UniProt P22607)
Test: phosphorylation enrichment, bacterial display (enrichment ratio); higher = better substrate or ligand; peptides without Tyr show the background
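Also: 11-residue human phosphosite peptides and single-mutation variants displayed on the E. coli surface, counted by deep sequencing, each peptide's frequency after selection divided by its frequency in the unselected input library; frequency after pTyr selection over input frequency; kinase dosed for 20-30% of maximal phosphorylation in three min.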

FGFR3, sequence (P22607 whole entry, looked up): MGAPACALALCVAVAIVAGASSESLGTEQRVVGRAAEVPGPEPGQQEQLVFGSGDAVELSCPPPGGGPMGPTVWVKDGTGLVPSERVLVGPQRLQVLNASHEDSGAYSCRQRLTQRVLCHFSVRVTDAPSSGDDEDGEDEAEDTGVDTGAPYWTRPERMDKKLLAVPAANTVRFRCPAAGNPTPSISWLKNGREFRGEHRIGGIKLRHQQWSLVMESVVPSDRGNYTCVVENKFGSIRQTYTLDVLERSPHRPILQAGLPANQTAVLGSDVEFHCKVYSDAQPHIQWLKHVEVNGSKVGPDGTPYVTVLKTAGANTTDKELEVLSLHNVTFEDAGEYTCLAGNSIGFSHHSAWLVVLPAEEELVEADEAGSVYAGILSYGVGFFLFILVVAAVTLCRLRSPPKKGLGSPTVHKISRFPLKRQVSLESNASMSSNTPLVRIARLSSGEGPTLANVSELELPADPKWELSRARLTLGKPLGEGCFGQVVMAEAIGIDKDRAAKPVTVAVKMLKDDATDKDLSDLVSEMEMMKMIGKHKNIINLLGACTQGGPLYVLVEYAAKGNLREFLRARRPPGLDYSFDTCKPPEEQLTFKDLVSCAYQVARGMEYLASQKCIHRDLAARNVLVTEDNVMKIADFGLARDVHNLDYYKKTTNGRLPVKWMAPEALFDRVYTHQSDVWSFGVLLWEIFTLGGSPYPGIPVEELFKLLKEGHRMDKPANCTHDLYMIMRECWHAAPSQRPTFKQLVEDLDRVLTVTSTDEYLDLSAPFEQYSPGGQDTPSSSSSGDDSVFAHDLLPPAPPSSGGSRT

| Sequence | phosphorylation enrichment |
| --- | --- |
| GKMSQYLESMQ [CYB5R3_Y130] | 0.426 |
| QWRTKYETDTI [MYH7_Y1375_A1379T] | 0.757 |
| KILAKYLLETS [NAMPT_Y175] | 0.421 |
| IVRSRYEDLED [VHL_Y185_L184R] | 0.704 |
| DRLTVYIDRVR [LMNA_Y45_A43T] | 0.779 |
| CHKRTYKVTGL | 0.465 |
| ENFSEYQEIAV [HEMGN_Y150] | 1.38 |
| DRLASYPEKVR [KRT13_Y118_L119P] | 0.413 |
| AVLSLYASGCT [ACTA2_Y145_R149C] | 0.811 |
| NLNGKYFKPRA [ANGPTL3_Y417_N418Y_YF] | 0.383 |
| GDFSRYDEGSG [RECQL5_Y484] | 0.662 |
| AHEALYLEADL [CENPF_Y1920_E1915A] | 2.09 |
| EVASVYESYQP [MAVS_Y92_Q93E] | 0.737 |
| RFVTRSIFNRE [HLA-DQB1_Y62_Y62S_YF] | 0.711 |
| SVTCTHSPALN [TP53_Y126_Y126H] | 0.612 |
| PLFSKYWPNHI [GREB1L_Y1560_R1558S_YF] | 0.724 |
| LLKAKYELLNA [POLR3A_Y714] | 0.493 |

| Sequence | phosphorylation enrichment |
| --- | --- |
| SNMPTYSGHFS [GRIN2A_Y1224_T1229S] | 0.45 |
| TTSQLYDAMPI [PDPK1_Y9_V12M] | 0.809 |
| GIVEDYRPPFY [ACVRL1_Y421] | 0.633 |
| QRKRAYVEIEY [MAK16_Y282] | 0.663 |
| SGLDSYVRSLP [TRAPPC1_Y133_R129G] | 0.48 |
| VDDEIYYFRKP [PBRM1_Y1289] | 5.81 |
| PLLEFYWDIFT [CDAN1_Y713_R714W_YF] | 0.94 |
| PVDVAYRRGYF [PLEC_Y2967] | 0.588 |
| THEVRYVSAGQ [SLCO4A1_Y77] | 0.45 |
| SDPIVYTLENI [EMR1_Y534_I533V] | 0.755 |
| KFRREYILSLE [GPC3_Y299_W296R_YF] | 0.466 |
| EICTQYEAMAS [GFAP_Y242_R239C] | 0.683 |
| EFTAGYNVKFD [GPX4_Y123_A120T] | 0.547 |
| SSYDTYHLSRE [KIR3DL2_Y253_I252T] | 0.569 |
| SIGLGYHKDLQ [NF1_Y1169] | 0.486 |
| FSCLPYRRLAY [SLC52A2_Y305_G306R] | 0.758 |

System: Fer (mouse)
Test: as above

| Sequence | phosphorylation enrichment |
| --- | --- |
| GKMSQYLESMQ [CYB5R3_Y130] | 0.373 |
| QWRTKYETDTI [MYH7_Y1375_A1379T] | 0.5 |
| KILAKYLLETS [NAMPT_Y175] | 0.411 |
| IVRSRYEDLED [VHL_Y185_L184R] | 0.619 |
| DRLTVYIDRVR [LMNA_Y45_A43T] | 0.433 |
| CHKRTYKVTGL | 0.398 |
| ENFSEYQEIAV [HEMGN_Y150] | 1.4 |
| DRLASYPEKVR [KRT13_Y118_L119P] | 0.329 |
| AVLSLYASGCT [ACTA2_Y145_R149C] | 0.576 |
| NLNGKYFKPRA [ANGPTL3_Y417_N418Y_YF] | 0.297 |
| GDFSRYDEGSG [RECQL5_Y484] | 0.439 |
| AHEALYLEADL [CENPF_Y1920_E1915A] | 1.12 |
| EVASVYESYQP [MAVS_Y92_Q93E] | 10.1 |
| RFVTRSIFNRE [HLA-DQB1_Y62_Y62S_YF] | 0.652 |
| SVTCTHSPALN [TP53_Y126_Y126H] | 0.542 |
| PLFSKYWPNHI [GREB1L_Y1560_R1558S_YF] | 0.907 |
| LLKAKYELLNA [POLR3A_Y714] | 0.423 |

| Sequence | phosphorylation enrichment |
| --- | --- |
| SNMPTYSGHFS [GRIN2A_Y1224_T1229S] | 1.04 |
| TTSQLYDAMPI [PDPK1_Y9_V12M] | 12.4 |
| GIVEDYRPPFY [ACVRL1_Y421] | 0.457 |
| QRKRAYVEIEY [MAK16_Y282] | 0.441 |
| SGLDSYVRSLP [TRAPPC1_Y133_R129G] | 0.445 |
| VDDEIYYFRKP [PBRM1_Y1289] | 1.29 |
| PLLEFYWDIFT [CDAN1_Y713_R714W_YF] | 0.527 |
| PVDVAYRRGYF [PLEC_Y2967] | 0.601 |
| THEVRYVSAGQ [SLCO4A1_Y77] | 0.47 |
| SDPIVYTLENI [EMR1_Y534_I533V] | 2.35 |
| KFRREYILSLE [GPC3_Y299_W296R_YF] | 0.442 |
| EICTQYEAMAS [GFAP_Y242_R239C] | 0.829 |
| EFTAGYNVKFD [GPX4_Y123_A120T] | 0.495 |
| SSYDTYHLSRE [KIR3DL2_Y253_I252T] | 0.457 |
| SIGLGYHKDLQ [NF1_Y1169] | 0.368 |
| FSCLPYRRLAY [SLC52A2_Y305_G306R] | 0.5 |

Target: Fes (UniProt P07332)
Test: as above

Fes, sequence (P07332 whole entry, looked up): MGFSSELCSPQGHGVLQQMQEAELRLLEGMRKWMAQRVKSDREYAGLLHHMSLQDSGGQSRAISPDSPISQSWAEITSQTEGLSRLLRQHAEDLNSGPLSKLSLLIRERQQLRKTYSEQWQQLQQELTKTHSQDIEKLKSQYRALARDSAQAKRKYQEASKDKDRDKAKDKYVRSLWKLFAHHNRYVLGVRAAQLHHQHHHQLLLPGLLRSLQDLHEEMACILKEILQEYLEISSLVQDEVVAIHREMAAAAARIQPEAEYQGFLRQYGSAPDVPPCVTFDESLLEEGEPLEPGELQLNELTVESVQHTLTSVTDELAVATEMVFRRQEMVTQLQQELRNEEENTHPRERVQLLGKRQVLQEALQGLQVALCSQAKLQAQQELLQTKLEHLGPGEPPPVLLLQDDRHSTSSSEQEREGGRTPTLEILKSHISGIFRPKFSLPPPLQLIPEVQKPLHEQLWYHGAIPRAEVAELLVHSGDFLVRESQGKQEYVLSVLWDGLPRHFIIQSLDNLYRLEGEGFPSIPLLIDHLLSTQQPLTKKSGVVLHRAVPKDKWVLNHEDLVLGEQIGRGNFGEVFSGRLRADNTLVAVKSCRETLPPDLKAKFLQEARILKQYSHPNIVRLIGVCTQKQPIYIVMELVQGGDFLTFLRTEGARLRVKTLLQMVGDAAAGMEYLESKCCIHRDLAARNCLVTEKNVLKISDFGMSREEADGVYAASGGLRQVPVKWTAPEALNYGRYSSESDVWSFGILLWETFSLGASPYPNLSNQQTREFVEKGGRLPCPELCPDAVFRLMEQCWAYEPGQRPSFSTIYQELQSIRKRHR

| Sequence | phosphorylation enrichment |
| --- | --- |
| GKMSQYLESMQ [CYB5R3_Y130] | 0.583 |
| QWRTKYETDTI [MYH7_Y1375_A1379T] | 1.49 |
| KILAKYLLETS [NAMPT_Y175] | 0.664 |
| IVRSRYEDLED [VHL_Y185_L184R] | 0.946 |
| DRLTVYIDRVR [LMNA_Y45_A43T] | 1.26 |
| CHKRTYKVTGL | 0.667 |
| ENFSEYQEIAV [HEMGN_Y150] | 1.24 |
| DRLASYPEKVR [KRT13_Y118_L119P] | 0.57 |
| AVLSLYASGCT [ACTA2_Y145_R149C] | 1.39 |
| NLNGKYFKPRA [ANGPTL3_Y417_N418Y_YF] | 0.56 |
| GDFSRYDEGSG [RECQL5_Y484] | 1.16 |
| AHEALYLEADL [CENPF_Y1920_E1915A] | 1.29 |
| EVASVYESYQP [MAVS_Y92_Q93E] | 1.11 |
| RFVTRSIFNRE [HLA-DQB1_Y62_Y62S_YF] | 0.827 |
| SVTCTHSPALN [TP53_Y126_Y126H] | 1.01 |
| PLFSKYWPNHI [GREB1L_Y1560_R1558S_YF] | 1.33 |
| LLKAKYELLNA [POLR3A_Y714] | 0.614 |

| Sequence | phosphorylation enrichment |
| --- | --- |
| SNMPTYSGHFS [GRIN2A_Y1224_T1229S] | 0.581 |
| TTSQLYDAMPI [PDPK1_Y9_V12M] | 0.794 |
| GIVEDYRPPFY [ACVRL1_Y421] | 0.942 |
| QRKRAYVEIEY [MAK16_Y282] | 0.752 |
| SGLDSYVRSLP [TRAPPC1_Y133_R129G] | 0.651 |
| VDDEIYYFRKP [PBRM1_Y1289] | 1.39 |
| PLLEFYWDIFT [CDAN1_Y713_R714W_YF] | 1.2 |
| PVDVAYRRGYF [PLEC_Y2967] | 0.661 |
| THEVRYVSAGQ [SLCO4A1_Y77] | 0.773 |
| SDPIVYTLENI [EMR1_Y534_I533V] | 1.69 |
| KFRREYILSLE [GPC3_Y299_W296R_YF] | 0.772 |
| EICTQYEAMAS [GFAP_Y242_R239C] | 1.15 |
| EFTAGYNVKFD [GPX4_Y123_A120T] | 0.891 |
| SSYDTYHLSRE [KIR3DL2_Y253_I252T] | 0.713 |
| SIGLGYHKDLQ [NF1_Y1169] | 0.536 |
| FSCLPYRRLAY [SLC52A2_Y305_G306R] | 0.671 |

Target: Fyn (UniProt P06241)
Test: as above

Fyn, sequence (P06241 whole entry, looked up): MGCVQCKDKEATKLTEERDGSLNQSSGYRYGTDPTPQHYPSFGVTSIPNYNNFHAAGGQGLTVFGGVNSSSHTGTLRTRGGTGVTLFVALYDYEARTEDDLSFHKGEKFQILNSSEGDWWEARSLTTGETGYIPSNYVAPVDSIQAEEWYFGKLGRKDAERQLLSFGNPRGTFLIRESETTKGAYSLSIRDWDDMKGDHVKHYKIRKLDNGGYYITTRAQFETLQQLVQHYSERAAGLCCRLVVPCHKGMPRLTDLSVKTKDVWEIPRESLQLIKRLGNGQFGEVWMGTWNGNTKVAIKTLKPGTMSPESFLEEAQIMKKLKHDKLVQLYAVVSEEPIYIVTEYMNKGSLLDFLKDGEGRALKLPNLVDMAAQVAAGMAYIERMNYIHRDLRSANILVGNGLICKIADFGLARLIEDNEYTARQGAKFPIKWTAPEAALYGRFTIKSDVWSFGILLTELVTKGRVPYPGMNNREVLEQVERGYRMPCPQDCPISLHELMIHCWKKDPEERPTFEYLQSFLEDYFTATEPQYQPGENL

| Sequence | phosphorylation enrichment |
| --- | --- |
| GKMSQYLESMQ [CYB5R3_Y130] | 0.457 |
| QWRTKYETDTI [MYH7_Y1375_A1379T] | 0.489 |
| KILAKYLLETS [NAMPT_Y175] | 0.35 |
| IVRSRYEDLED [VHL_Y185_L184R] | 0.693 |
| DRLTVYIDRVR [LMNA_Y45_A43T] | 0.409 |
| CHKRTYKVTGL | 0.417 |
| ENFSEYQEIAV [HEMGN_Y150] | 0.586 |
| DRLASYPEKVR [KRT13_Y118_L119P] | 0.35 |
| AVLSLYASGCT [ACTA2_Y145_R149C] | 0.538 |
| NLNGKYFKPRA [ANGPTL3_Y417_N418Y_YF] | 0.335 |
| GDFSRYDEGSG [RECQL5_Y484] | 0.502 |
| AHEALYLEADL [CENPF_Y1920_E1915A] | 0.692 |
| EVASVYESYQP [MAVS_Y92_Q93E] | 8.41 |
| RFVTRSIFNRE [HLA-DQB1_Y62_Y62S_YF] | 0.498 |
| SVTCTHSPALN [TP53_Y126_Y126H] | 0.52 |
| PLFSKYWPNHI [GREB1L_Y1560_R1558S_YF] | 0.805 |
| LLKAKYELLNA [POLR3A_Y714] | 0.466 |

| Sequence | phosphorylation enrichment |
| --- | --- |
| SNMPTYSGHFS [GRIN2A_Y1224_T1229S] | 1.7 |
| TTSQLYDAMPI [PDPK1_Y9_V12M] | 6.16 |
| GIVEDYRPPFY [ACVRL1_Y421] | 0.49 |
| QRKRAYVEIEY [MAK16_Y282] | 0.585 |
| SGLDSYVRSLP [TRAPPC1_Y133_R129G] | 0.424 |
| VDDEIYYFRKP [PBRM1_Y1289] | 8.84 |
| PLLEFYWDIFT [CDAN1_Y713_R714W_YF] | 0.448 |
| PVDVAYRRGYF [PLEC_Y2967] | 0.642 |
| THEVRYVSAGQ [SLCO4A1_Y77] | 0.398 |
| SDPIVYTLENI [EMR1_Y534_I533V] | 4.76 |
| KFRREYILSLE [GPC3_Y299_W296R_YF] | 0.518 |
| EICTQYEAMAS [GFAP_Y242_R239C] | 0.576 |
| EFTAGYNVKFD [GPX4_Y123_A120T] | 0.465 |
| SSYDTYHLSRE [KIR3DL2_Y253_I252T] | 6.54 |
| SIGLGYHKDLQ [NF1_Y1169] | 0.427 |
| FSCLPYRRLAY [SLC52A2_Y305_G306R] | 0.691 |
